The text below walks through data of publication PMC5986207.

The target in this assay is human HER2 extracellular domain, soluble, His-tagged (human). Briefly: AUC; multisignal sedimentation velocity (MSSV), 4:1 molar loading of HER2 to antibody (5.8:1.4 μM), PBS, 20 °C, 42,000 rpm, UV 280 and 250 nm and interference, SEDPHAT.

“MEDI4276, anti-HER2 biparatopic, monospecific, tetravalent antibody (trastuzumab scFv on the N terminus of the 39S heavy chain) (bispecific antibody)” came in with a stoichiometry N (HER2 per MEDI4276 (2:1)) of 2 and a stoichiometry N (HER2 per MEDI4276 (5:3)) of 1.67.
